Patent US20050064507A1, “Determining kinase specificity” (priority 2003, published 2005)

How the values were obtained:
Format in all cases: biochemical
[1] = target: T1, AKT1 (Homo sapiens, UniProt P31749); experiment: In vitro kinase assay: peptide phosphorylation by AKT1; conditions: normalized to best substrate
T1 construct: purchased Panvera
Description: (§1) Catalytically active preparations of the kinases of interest were either purchased or prepared. Purchased and tested active kinase preparations including the following: PKC-alpha, PKC-delta, PKC-epsilon, PKC-zeta, PKC-mu, PKA, PKG from Calbiochem, ROK alpha/ROCK-II, active from Upstate Biotechnology, and AKT1 from Panvera.
(§2) The conditions of the kinase assay and the amount of active kinase used varied with the kinase and with the accuracy needed. For a typical experiment, 5-20 ng of kinase was used per well and each peptide pool was assayed in duplicate wells. Note that the absolute amount of kinase used was not usually a critical parameter, because the desired information related to specificity of the kinase not its absolute activity, and robustness of the assay depends on comparisons of the same amount of kinase on different peptides. The combination of kinase concentration and assay duration was modified to assure that the stoichiometry of peptide phosphorylation never exceeded 5%. The choice of kinase buffer depended on the kinase being analyzed. For studies of PKC, 100 mM HEPES, 0.05% Triton-X100, 1 mM CaCl2, 20 mM MgCl2, 0.2 mg/ml phosphatidyl serine (Avanti Polar Lipids), PMA 100 ng/ml was typically used. The lipid stock was prepared by transferring 3 mg phosphatidyl serine into iced mixture of 450 μl water plus 50 μl of 10% Triton-X100, sonicating 10 times on ice for 1 sec each.
(§3) The kinase reaction mixture was assembled by sequential addition to a tube held on ice of: 5 μl peptide (100 μM for final concentration of 10 μM), 15 μl of kinase (typically 5 ng/well, in appropriate kinase buffer), 30 μl of ATP (1 uCi/well of ^32P-gamma ATP in a stock of 167 μM cold ATP in the kinase buffer; for final concentration for 100 μM ATP). The mixture was rapidly warmed to desired reaction temperature (30° C. for PKC) and incubated for the desired duration (usually 10 minutes). The kinase assay was terminated by transfer to 4° C. water batch, and rapid addition of an equal volume (50 μl) of stop solution [0.1M ATP+0.1M EDTA in water, pH 8].
(§4) The peptides were then captured from the reaction mixture by transfer to a Reacti-Bind Streptavidin High Binding Capacity Coated Plates (HBC) (Pierce Biotechnology) as follows. The HBC plates were pre-rinsed three times with PBS/Tween PBS/Tween20 0.05% (PBS/Tween). Part of all of the reaction mixture was then transferred wells of a HBC plate pre-filled with 90 μl of phosphate-buffered saline (PBS); typically each aliquots of each phosphorylation reaction were transferred to duplicate HBC plates to assure accuracy by additional replication
(§5) For kinase assays done at the standard peptide concentration of 10 μM, the peptide concentration in the reaction mixture becomes 5 μM after addition of the stop solution; consequently 10 μl of the reaction (50 pMoles of peptide) was transferred to the HBC plate. More generally, the amount of reaction mixture transferred was estimated to be about 50 pMoles of peptide. […] The HBC plates were incubated for 0.5 to 1.5 hr at room temperature for complete binding of biotinylated peptides to plate-bound streptavidin. The HBC plates were then washed extensively with PBS/Tween. Five washes were done routinely and additional wash steps were added if the wash solution removed from the plate had measurable radioactivity as detected using a Geiger counter. This step is essential to obtaining a good the signal to noise ratio because the fraction of radioactivity incorporated in the peptides was a tiny fraction of the total in the reaction mixture. The wells were air-dried. A volume of 40-50 μl of microScint-20 (Packard Instruments) was added to each well. The plates were covered with stick-on film sheet. Radioactive emissions were measured in a TopCount NXT Microplate Scintillation and Luminescence Counter (Packard Instruments). Typically samples were counted for 5 minutes (or more) to improve the signal to noise ratio when counts were low. […]

[2] = target: T2, PKA (Homo sapiens, UniProt P17612); experiment: In vitro kinase assay: peptide phosphorylation by PKA; conditions: normalized to best substrate
T2 construct: purchased Calbiochem
Description: as §1, §2, §3, §4, §5

[3] = target: T3, PKC-zeta (Homo sapiens, UniProt Q05513); experiment: In vitro kinase assay: peptide phosphorylation by PKC-zeta; conditions: for PKC-zeta phosphorylation: normalized to best substrate
T3 construct: purchased Calbiochem
T3 sequence (Q05513 1-592): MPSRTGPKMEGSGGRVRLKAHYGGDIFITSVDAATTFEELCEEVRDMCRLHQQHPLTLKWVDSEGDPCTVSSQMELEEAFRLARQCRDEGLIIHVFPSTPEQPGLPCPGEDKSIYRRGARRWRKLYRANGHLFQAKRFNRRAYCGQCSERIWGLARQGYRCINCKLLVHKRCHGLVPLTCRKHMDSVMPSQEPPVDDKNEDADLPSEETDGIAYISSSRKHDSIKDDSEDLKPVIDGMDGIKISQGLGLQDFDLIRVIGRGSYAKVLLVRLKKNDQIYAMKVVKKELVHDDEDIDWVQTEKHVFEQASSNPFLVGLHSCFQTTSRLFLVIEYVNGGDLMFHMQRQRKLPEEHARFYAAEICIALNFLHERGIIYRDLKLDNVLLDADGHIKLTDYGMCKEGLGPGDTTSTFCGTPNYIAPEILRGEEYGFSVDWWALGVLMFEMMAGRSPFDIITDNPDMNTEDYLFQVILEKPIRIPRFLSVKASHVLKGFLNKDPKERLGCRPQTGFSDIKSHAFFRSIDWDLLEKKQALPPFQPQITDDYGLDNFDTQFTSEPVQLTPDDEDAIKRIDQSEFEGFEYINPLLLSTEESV

[4] = target: T4, PKC-delta (Homo sapiens, UniProt Q05655); experiment: In vitro kinase assay: peptide phosphorylation by PKC-delta
T4 construct: purchased Calbiochem
Method in brief: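 Biotin-Lys-dansyl-Lys-Pro-Pro-Gly-linked proteomic peptides (12–21-residue core) phosphorylated by PKC-delta in HEPES/Triton/CaCl2/MgCl2 buffer with phosphatidyl serine and PMA, 100 μM [γ-32P]ATP, 30° C., ~10 min, stoichiometry ≤5%; streptavidin-plate capture. Signal normalized as % of best peptide substrate.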

T4 sequence (Q05655 whole entry): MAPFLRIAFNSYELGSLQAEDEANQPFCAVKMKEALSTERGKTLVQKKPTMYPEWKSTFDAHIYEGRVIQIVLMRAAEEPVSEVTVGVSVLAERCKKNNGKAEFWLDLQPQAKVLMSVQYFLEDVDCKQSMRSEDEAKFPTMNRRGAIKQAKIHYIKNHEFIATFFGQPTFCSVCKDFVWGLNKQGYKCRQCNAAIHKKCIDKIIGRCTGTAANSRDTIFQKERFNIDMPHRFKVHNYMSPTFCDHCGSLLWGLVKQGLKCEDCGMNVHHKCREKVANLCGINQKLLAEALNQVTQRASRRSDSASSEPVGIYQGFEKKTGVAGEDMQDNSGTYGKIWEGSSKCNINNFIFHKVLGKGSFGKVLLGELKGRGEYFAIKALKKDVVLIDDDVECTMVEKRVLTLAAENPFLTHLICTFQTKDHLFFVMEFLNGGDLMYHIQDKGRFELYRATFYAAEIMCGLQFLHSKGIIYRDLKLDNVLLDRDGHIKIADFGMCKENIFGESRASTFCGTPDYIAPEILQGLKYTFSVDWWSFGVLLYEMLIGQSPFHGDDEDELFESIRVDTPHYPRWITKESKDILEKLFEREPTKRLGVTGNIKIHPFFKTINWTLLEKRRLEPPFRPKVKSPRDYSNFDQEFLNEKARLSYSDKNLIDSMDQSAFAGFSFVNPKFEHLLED
T1 sequence (P31749 whole entry, species assumed): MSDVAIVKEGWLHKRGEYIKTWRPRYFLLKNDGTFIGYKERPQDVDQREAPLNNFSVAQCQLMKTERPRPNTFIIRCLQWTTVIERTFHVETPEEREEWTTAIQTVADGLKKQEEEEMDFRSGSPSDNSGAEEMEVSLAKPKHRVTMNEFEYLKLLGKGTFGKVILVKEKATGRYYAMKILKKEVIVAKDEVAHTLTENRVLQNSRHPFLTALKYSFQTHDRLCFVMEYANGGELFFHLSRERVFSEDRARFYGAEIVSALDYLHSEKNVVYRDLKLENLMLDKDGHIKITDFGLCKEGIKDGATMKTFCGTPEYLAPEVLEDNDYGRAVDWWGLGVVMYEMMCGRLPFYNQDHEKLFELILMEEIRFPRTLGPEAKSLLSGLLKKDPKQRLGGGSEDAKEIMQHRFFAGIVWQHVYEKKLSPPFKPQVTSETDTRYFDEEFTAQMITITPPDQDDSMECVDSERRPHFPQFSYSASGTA

Row | Substance | AKT1 phosphorylation [1] [%] | PKA phosphorylation [2] [%] | PKC-zeta phosphorylation [3] [%] | phosphorylation by PKC-delta ([4]; peptide concentration 1 uM) | phosphorylation by PKC-delta ([4]; peptide concentration 10 uM) | phosphorylation by PKC zeta ([3]; peptide concentration 1 uM) | phosphorylation by PKC zeta ([3]; peptide concentration 10 uM)
1 | 81 (KRERKTSSKSSVRKRR) [compound 81] | 9 | 2 | 10 |  |  |  | 
2 | 87 (RQGKRKTSIKRDTVNPL) [compound 87] | 7 | 64 | 3 |  |  |  | 
3 | 88 (KKPFKLSGLSFKRNRKE) [compound 88] | 10 | 3 | 4 |  |  |  | 
4 | 91 (VHYTSKDTLRKRHYWR) [compound 91] | 5 | 3 | 12 |  |  |  | 
5 | 97 (KKRSSKKEASMKKVVRP) [compound 97] | 10 | 1 | 1 |  |  |  | 
6 | 98 (AGPLRKSSLKKGGRL) [compound 98] | 7 | 21 | 4 |  |  |  | 
7 | 148 (RELEQLKAEYLERRASRRRA) [compound 148] |  |  |  | 27 | 14 | 20 | 20
8 | 149 (RVVQSVKHTKRKSSTVMK) [compound 149] |  |  |  | 20 | 17 | 3 | 5
9 | 150 (VDPFYEMLAARKKRISVKKK) [compound 150] |  |  |  | 34 | 20 | 3 | 6
10 | 151 (PQNSLKASNRKKKRTSFKRK) [compound 151] |  |  |  | 27 | 37 | 15 | 28
11 | 152 (DLIEGRKGAQIVKRASLKRG) [compound 152] |  |  |  | 35 | 18 | 4 | 9
12 | 153 (TYLLPDKSRQGKRKTSIKRD) [compound 153] |  |  |  | 32 | 26 | 6 | 13
